Starred links: 1 amine or outer side, 2 acyl side, 3 side chain; linkers in the order of their positions; H or OH if unused. Positions of bridges follow the written chain, without caps; N, C: chain ends. Non-standard residues stand in square brackets, D forms with d. dTyr(4-OMe) = O-methyl-D-tyrosine (4-OMe), COc1ccc(C[C@@H](N[*:1])C(=O)[*:2])cc1; dPhe(4-Br) = N[C@H](Cc1ccc(Br)cc1)C(=O)O; 4Pal = N[C@@H](Cc1ccncc1)C(=O)O; Cit = NC(=O)NCCC[C@H](N)C(=O)O; Nle = CCCC[C@H](N)C(=O)O; Aib = CC(C)(N)C(=O)O
B1: CTX-1627 (peptide)
peptide: Ac-C[dA]R[dF]RWC-NH2
modifications: disulfide 1-7
SMILES: CC(=O)N[C@H]1CSSC[C@@H](C(N)=O)NC(=O)[C@H](Cc2c[nH]c3ccccc23)NC(=O)[C@H](CCCNC(=N)N)NC(=O)[C@@H](Cc2ccccc2)NC(=O)[C@H](CCCNC(=N)N)NC(=O)[C@@H](C)NC1=O
B2: CTX-1630 (peptide)
peptide: Ac-CG[Cit][dF]RWC-NH2
modifications: disulfide 1-7
SMILES: CC(=O)N[C@H]1CSSC[C@@H](C(N)=O)NC(=O)[C@H](Cc2c[nH]c3ccccc23)NC(=O)[C@H](CCCNC(=N)N)NC(=O)[C@@H](Cc2ccccc2)NC(=O)[C@H](CCCNC(N)=O)NC(=O)CNC1=O
B3: CTX-1639 (peptide)
peptide: Ac-CG[Cit][dF]RFC-NH2
modifications: disulfide 1-7
SMILES: CC(=O)N[C@H]1CSSC[C@@H](C(N)=O)NC(=O)[C@H](Cc2ccccc2)NC(=O)[C@H](CCCNC(=N)N)NC(=O)[C@@H](Cc2ccccc2)NC(=O)[C@H](CCCNC(N)=O)NC(=O)CNC1=O
B4: CTX-1638 (peptide)
peptide: Ac-CGR[dF]RFC-NH2
modifications: disulfide 1-7
SMILES: CC(=O)N[C@H]1CSSC[C@@H](C(N)=O)NC(=O)[C@H](Cc2ccccc2)NC(=O)[C@H](CCCNC(=N)N)NC(=O)[C@@H](Cc2ccccc2)NC(=O)[C@H](CCCNC(=N)N)NC(=O)CNC1=O
B5: CTX-1635 (peptide)
peptide: Ac-C[Aib]R[dF]RFC-NH2
modifications: disulfide 1-7
SMILES: CC(=O)N[C@H]1CSSC[C@@H](C(N)=O)NC(=O)[C@H](Cc2ccccc2)NC(=O)[C@H](CCCNC(=N)N)NC(=O)[C@@H](Cc2ccccc2)NC(=O)[C@H](CCCNC(=N)N)NC(=O)C(C)(C)NC1=O
B6: CTX-1622 (peptide)
peptide: Ac-R[Nle]CR[dF]RFC-NH2
modifications: disulfide 3-8
SMILES: CCCC[C@H](NC(=O)[C@H](CCCNC(=N)N)NC(C)=O)C(=O)N[C@H]1CSSC[C@@H](C(N)=O)NC(=O)[C@H](Cc2ccccc2)NC(=O)[C@H](CCCNC(=N)N)NC(=O)[C@@H](Cc2ccccc2)NC(=O)[C@H](CCCNC(=N)N)NC1=O
B7: CTX-1634 (peptide)
peptide: Ac-C[Aib]H[dF]RFC-NH2
modifications: disulfide 1-7
SMILES: CC(=O)N[C@H]1CSSC[C@@H](C(N)=O)NC(=O)[C@H](Cc2ccccc2)NC(=O)[C@H](CCCNC(=N)N)NC(=O)[C@@H](Cc2ccccc2)NC(=O)[C@H](Cc2c[nH]cn2)NC(=O)C(C)(C)NC1=O
B8: CTX-1632 (peptide)
peptide: Ac-C[Aib]R[dF]RWC-NH2
modifications: disulfide 1-7
SMILES: CC(=O)N[C@H]1CSSC[C@@H](C(N)=O)NC(=O)[C@H](Cc2c[nH]c3ccccc23)NC(=O)[C@H](CCCNC(=N)N)NC(=O)[C@@H](Cc2ccccc2)NC(=O)[C@H](CCCNC(=N)N)NC(=O)C(C)(C)NC1=O
B9: CTX-1626 (peptide)
peptide: Ac-R[Nle]C[Cit][dF]RFC-NH2
modifications: disulfide 3-8
SMILES: CCCC[C@H](NC(=O)[C@H](CCCNC(=N)N)NC(C)=O)C(=O)N[C@H]1CSSC[C@@H](C(N)=O)NC(=O)[C@H](Cc2ccccc2)NC(=O)[C@H](CCCNC(=N)N)NC(=O)[C@@H](Cc2ccccc2)NC(=O)[C@H](CCCNC(N)=O)NC1=O
B10: CTX-1624 (peptide)
peptide: Ac-R[Nle]CR[dTyr(4-OMe)]RFC-NH2
modifications: disulfide 3-8
SMILES: CCCC[C@H](NC(=O)[C@H](CCCNC(=N)N)NC(C)=O)C(=O)N[C@H]1CSSC[C@@H](C(N)=O)NC(=O)[C@H](Cc2ccccc2)NC(=O)[C@H](CCCNC(=N)N)NC(=O)[C@@H](Cc2ccc(OC)cc2)NC(=O)[C@H](CCCNC(=N)N)NC1=O
B11: CTX-1642 (peptide)
peptide: {CH2CO}-[dA]R[dF]RWC-NH2
modifications: thioether N-6
SMILES: C[C@H]1NC(=O)CSC[C@@H](C(N)=O)NC(=O)[C@H](Cc2c[nH]c3ccccc23)NC(=O)[C@H](CCCNC(=N)N)NC(=O)[C@@H](Cc2ccccc2)NC(=O)[C@H](CCCNC(=N)N)NC1=O
B12: CTX-1628 (peptide)
peptide: Ac-C[dA][Cit][dF]RWC-NH2
modifications: disulfide 1-7
SMILES: CC(=O)N[C@H]1CSSC[C@@H](C(N)=O)NC(=O)[C@H](Cc2c[nH]c3ccccc23)NC(=O)[C@H](CCCNC(=N)N)NC(=O)[C@@H](Cc2ccccc2)NC(=O)[C@H](CCCNC(N)=O)NC(=O)[C@@H](C)NC1=O
B13: CTX-1633 (peptide)
peptide: Ac-C[Aib][Cit][dF]RWC-NH2
modifications: disulfide 1-7
SMILES: CC(=O)N[C@H]1CSSC[C@@H](C(N)=O)NC(=O)[C@H](Cc2c[nH]c3ccccc23)NC(=O)[C@H](CCCNC(=N)N)NC(=O)[C@@H](Cc2ccccc2)NC(=O)[C@H](CCCNC(N)=O)NC(=O)C(C)(C)NC1=O
B14: CTX-1643 (peptide)
peptide: {CH2CO}-[dA][Cit][dF]RWC-NH2
modifications: thioether N-6
SMILES: C[C@H]1NC(=O)CSC[C@@H](C(N)=O)NC(=O)[C@H](Cc2c[nH]c3ccccc23)NC(=O)[C@H](CCCNC(=N)N)NC(=O)[C@@H](Cc2ccccc2)NC(=O)[C@H](CCCNC(N)=O)NC1=O
B15: CTX-1636 (peptide)
peptide: Ac-C[Aib][Cit][dF]RFC-NH2
modifications: disulfide 1-7
SMILES: CC(=O)N[C@H]1CSSC[C@@H](C(N)=O)NC(=O)[C@H](Cc2ccccc2)NC(=O)[C@H](CCCNC(=N)N)NC(=O)[C@@H](Cc2ccccc2)NC(=O)[C@H](CCCNC(N)=O)NC(=O)C(C)(C)NC1=O
B16: CTX-1621 (peptide)
peptide: Ac-R[Nle]C[4Pal][dF]RWC-NH2
modifications: disulfide 3-8
SMILES: CCCC[C@H](NC(=O)[C@H](CCCNC(=N)N)NC(C)=O)C(=O)N[C@H]1CSSC[C@@H](C(N)=O)NC(=O)[C@H](Cc2c[nH]c3ccccc23)NC(=O)[C@H](CCCNC(=N)N)NC(=O)[C@@H](Cc2ccccc2)NC(=O)[C@H](Cc2ccncc2)NC1=O
B17: CTX-1629 (peptide)
peptide: Ac-CGR[dF]RWC-NH2
modifications: disulfide 1-7
SMILES: CC(=O)N[C@H]1CSSC[C@@H](C(N)=O)NC(=O)[C@H](Cc2c[nH]c3ccccc23)NC(=O)[C@H](CCCNC(=N)N)NC(=O)[C@@H](Cc2ccccc2)NC(=O)[C@H](CCCNC(=N)N)NC(=O)CNC1=O
B18: CTX-1623 (peptide)
peptide: Ac-R[Nle]CR[dPhe(4-Br)]RFC-NH2
modifications: disulfide 3-8
SMILES: CCCC[C@H](NC(=O)[C@H](CCCNC(=N)N)NC(C)=O)C(=O)N[C@H]1CSSC[C@@H](C(N)=O)NC(=O)[C@H](Cc2ccccc2)NC(=O)[C@H](CCCNC(=N)N)NC(=O)[C@@H](Cc2ccc(Br)cc2)NC(=O)[C@H](CCCNC(=N)N)NC1=O

Biological target: T1, human MC4R receptor (human, UniProt P32245 1-332)
T1 sequence (P32245 whole entry): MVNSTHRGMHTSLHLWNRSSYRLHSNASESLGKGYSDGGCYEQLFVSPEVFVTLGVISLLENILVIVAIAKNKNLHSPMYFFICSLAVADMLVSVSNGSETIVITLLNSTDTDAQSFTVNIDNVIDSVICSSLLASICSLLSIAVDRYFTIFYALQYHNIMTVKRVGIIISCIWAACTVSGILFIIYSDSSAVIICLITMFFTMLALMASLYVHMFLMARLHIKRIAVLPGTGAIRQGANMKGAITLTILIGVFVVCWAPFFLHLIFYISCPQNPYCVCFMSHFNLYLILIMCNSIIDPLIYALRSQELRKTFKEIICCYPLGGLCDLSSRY
Test: cell-based or functional assay

Binder	MC4R selectivity vs MC1R	MC4R selectivity vs MC3R
B1	9.33	2.47
B2	1820	28
B3	8.32	2.82
B4	1.04	1.66
B5	1.19	5.7
B6	0.39	0.32
B7	4.02	6.68
B8	3.18	36
B9	3.05	1.6
B10	0.15	0.47
B11	13	29
B12	191	6.37
B13	942	104
B14	261	133
B15	> 12	9.44
B16	82	13
B17	15	19
B18	1.08	2.29

Biological target: human MC3R (human, UniProt P41968 1-323)
Sequence (P41968 whole entry): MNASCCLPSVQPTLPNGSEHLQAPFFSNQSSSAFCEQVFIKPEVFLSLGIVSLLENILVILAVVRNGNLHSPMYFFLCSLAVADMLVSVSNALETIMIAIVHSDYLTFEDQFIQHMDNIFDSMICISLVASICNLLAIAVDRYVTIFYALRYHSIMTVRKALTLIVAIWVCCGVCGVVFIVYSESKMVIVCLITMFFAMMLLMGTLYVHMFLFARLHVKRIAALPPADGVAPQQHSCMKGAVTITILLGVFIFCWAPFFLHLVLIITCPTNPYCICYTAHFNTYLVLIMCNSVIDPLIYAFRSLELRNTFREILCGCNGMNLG
Test: cell-based or functional assay

Binder	% max activation	cAMP EC50
B1	98%	3.7 nM
B2	35%	614 nM
B3	44%	7690 nM
B4	75%	408 nM
B5	70%	380 nM
B6	100%	13 nM
B7	94%	56 nM
B8	77%	19 nM
B9	51%	678 nM
B10	66%	5.6 nM
B11	90%	83 nM
B12	45%	92 nM
B13	45%	290 nM
B14	81%	2550 nM
B15	44%	7460 nM
B16	15%	36 nM
B17	83%	13 nM
B18	62%	3.9 nM

Biological target: T1, human MC4R receptor
Test: cell-based or functional assay
Remark: another data set of the same source

Binder	% max activation	cAMP EC50
B1	104%	1.4 nM
B2	102%	22 nM
B3	88%	2730 nM
B4	110%	351 nM
B5	112%	67 nM
B6	101%	41 nM
B7	107%	8.5 nM
B8	105%	0.51 nM
B9	83%	425 nM
B10	83%	12 nM
B11	107%	2.9 nM
B12	99%	14 nM
B13	110%	2.8 nM
B14	111%	19 nM
B15	102%	791 nM
B16	92%	2.9 nM
B17	102%	0.67 nM
B18	73%	1.7 nM
